Measurements published in US20230257449A1 (published 2023).

Experiments:
[1] = target: H3 (A/Brisbane/10/2007) (influenza A virus H3 …); test: ELISA
[2] = target: H1 (A/Cali/09/2007); test: ELISA

Binder | EC50 [1] [nM] | EC50 [2] [nM]
VH 8 / VL 3 (antibody, V domains shown) VH: EVQLLESGGGLVQPGGSLRLSCAASGFTFSSYAMHWVRQAPGKGLEWVAVISYDANYKYYADSVKGRFTISRDNSKNTLYLQMNSLRAEDTAVYYCAKDSRLRSLLYFEWLSQGYFDYWGQGTLVTVSS VL: DIQMTQSPSSLSASVGDRVTITCRSSQSITFDYKNYLAWYQQKPGKAPKLLIYAASSLQSGVPSRFSGSGSGTDFTLTISSLQPEDFATYYCQQHYRTPPSFGQGTKVEIK | 0.0286 | 0.0218
VH 3 / VL 2 (antibody, V domains shown) VH: QVQLVESGGGVVQPGRSLRLSCAASGFTFSTYAMHWVRQAPGKGLEWVAVISYDANYKYYADSVKGRFTISRDNSKNTLYLQMNSLRAEDTAVYYCAKDSQLRSLLYFEWLSQGYFDYWGQGTLVTVSS VL: DIQMTQSPSSLSASVGDRVTITCRSSQSITFDYKNYLAWYQQKPGKAPKLLIYWGSSLQSGVPSRFSGSGSGTDFTLTISSLQPEDFATYYCQQHYRTPPSFGQGTKVEIK | 0.0313 | 0.019
VH 6 / VL 2 (antibody, V domains shown) VH: QVQLVESGGGVVQPGRSLRLSCAASGFTFDTYAMHWVRQAPGKGLEWVAVISYDANYKYYADSVKGRFTISRDNSKNTLYLQMNSLRAEDTAVYYCARDSRLRSLLYFEWLSQGYFDYWGQGTLVTVSS VL: DIQMTQSPSSLSASVGDRVTITCRSSQSITFDYKNYLAWYQQKPGKAPKLLIYWGSSLQSGVPSRFSGSGSGTDFTLTISSLQPEDFATYYCQQHYRTPPSFGQGTKVEIK | 0.108 | 0.0207
VH 3 / VL 3 (antibody, V domains shown) VH: QVQLVESGGGVVQPGRSLRLSCAASGFTFSTYAMHWVRQAPGKGLEWVAVISYDANYKYYADSVKGRFTISRDNSKNTLYLQMNSLRAEDTAVYYCAKDSQLRSLLYFEWLSQGYFDYWGQGTLVTVSS VL: DIQMTQSPSSLSASVGDRVTITCRSSQSITFDYKNYLAWYQQKPGKAPKLLIYAASSLQSGVPSRFSGSGSGTDFTLTISSLQPEDFATYYCQQHYRTPPSFGQGTKVEIK | 0.0386 | 0.0246
VH 3 / VL 6 (antibody, V domains shown) VH: QVQLVESGGGVVQPGRSLRLSCAASGFTFSTYAMHWVRQAPGKGLEWVAVISYDANYKYYADSVKGRFTISRDNSKNTLYLQMNSLRAEDTAVYYCAKDSQLRSLLYFEWLSQGYFDYWGQGTLVTVSS VL: EIVMTQSPATLSVSPGERATLSCRSSQSITFDYKNYLAWYQQKPGQAPRLLIYWGSTRATGIPARFSGSGSGTEFTLTISSLQSEDFAVYYCQQHYRTPPSFGQGTKVEIK | 0.0313 | 0.0268
VH 8 / VL 6 (antibody, V domains shown) VH: EVQLLESGGGLVQPGGSLRLSCAASGFTFSSYAMHWVRQAPGKGLEWVAVISYDANYKYYADSVKGRFTISRDNSKNTLYLQMNSLRAEDTAVYYCAKDSRLRSLLYFEWLSQGYFDYWGQGTLVTVSS VL: EIVMTQSPATLSVSPGERATLSCRSSQSITFDYKNYLAWYQQKPGQAPRLLIYWGSTRATGIPARFSGSGSGTEFTLTISSLQSEDFAVYYCQQHYRTPPSFGQGTKVEIK | 0.0261 | 0.0269
VH 5 / VL 4 (antibody, V domains shown) VH: QVQLVESGGGVVQPGRSLRLSCAASGFTFSTYAMHWVRQAPGKGLEWVCVISYDANYKYYADSVKGRFTCSRDNSKNTLYLQMNSLRAEDTAVYYCARDSRLRSLLYFEWLSQGYFDYWGQGTLVTVSS VL: DIVMTQSPDSLAVSLGERATINCKSSQSVTFDYKNYLAWYQQKPGQPPKLLIYWASTRESGVPDRFSGSGSGTDFTLTISSLQAEDVAVYYCQQHYRTPPSFGQGTKVEIK | 0.0268 | 0.0285
VH 12 / VL 2 (antibody, V domains shown) VH: QVQLVQSGAEVKKPGASVKVSCKASGFTFSTYAINWVRQATGQGLEWMGVISYDANYKYYAQKFQGRVTMTRDTSISTAYMELSSLRSEDTAVYYCARDSQLRSLLYFEWLSQGYFDYWGQGTTLTVSS VL: DIQMTQSPSSLSASVGDRVTITCRSSQSITFDYKNYLAWYQQKPGKAPKLLIYWGSSLQSGVPSRFSGSGSGTDFTLTISSLQPEDFATYYCQQHYRTPPSFGQGTKVEIK | 88.9 | 0.0161
VH 5 / VL 2 (antibody, V domains shown) VH: QVQLVESGGGVVQPGRSLRLSCAASGFTFSTYAMHWVRQAPGKGLEWVCVISYDANYKYYADSVKGRFTCSRDNSKNTLYLQMNSLRAEDTAVYYCARDSRLRSLLYFEWLSQGYFDYWGQGTLVTVSS VL: DIQMTQSPSSLSASVGDRVTITCRSSQSITFDYKNYLAWYQQKPGKAPKLLIYWGSSLQSGVPSRFSGSGSGTDFTLTISSLQPEDFATYYCQQHYRTPPSFGQGTKVEIK | 0.0219 | 0.0231
VH 5 / VL 6 (antibody, V domains shown) VH: QVQLVESGGGVVQPGRSLRLSCAASGFTFSTYAMHWVRQAPGKGLEWVCVISYDANYKYYADSVKGRFTCSRDNSKNTLYLQMNSLRAEDTAVYYCARDSRLRSLLYFEWLSQGYFDYWGQGTLVTVSS VL: EIVMTQSPATLSVSPGERATLSCRSSQSITFDYKNYLAWYQQKPGQAPRLLIYWGSTRATGIPARFSGSGSGTEFTLTISSLQSEDFAVYYCQQHYRTPPSFGQGTKVEIK | 0.0295 | 0.0317
VH 10 / VL 2 (antibody, V domains shown) VH: QVQLVQSGAEVKKPGSSVKVSCKASGFTFSTYAIHWVRQAPGQGLEWMGVISYDANYKYYAQKFQGRVTITRDNSKSTAYMELSSLRSEDTAVYYCARDSRLRSLLYFEWLSQGYFDYWGQGTTLTVSS VL: DIQMTQSPSSLSASVGDRVTITCRSSQSITFDYKNYLAWYQQKPGKAPKLLIYWGSSLQSGVPSRFSGSGSGTDFTLTISSLQPEDFATYYCQQHYRTPPSFGQGTKVEIK | 0.0412 | 0.0227
VH 8 / VL 7 (antibody, V domains shown) VH: EVQLLESGGGLVQPGGSLRLSCAASGFTFSSYAMHWVRQAPGKGLEWVAVISYDANYKYYADSVKGRFTISRDNSKNTLYLQMNSLRAEDTAVYYCAKDSRLRSLLYFEWLSQGYFDYWGQGTLVTVSS VL: EIVMTQSPATLSVSPGERATLSCRSSQSITFDYKNYLAWYQQKPGQAPRLLIYSASTRATGIPARFSGSGSGTEFTLTISSLQSEDFAVYYCQQHYRTPPSFGQGTKVEIK | 0.0356 | 0.0318
VH 7 / VL 6 (antibody, V domains shown) VH: EVQLLESGGGLVQPGGSLRLSCAASGFTFSSYAMHWVRQAPGKGLEWVSVISYDANYKYYADSVKGRFTISRDNSKNTLYLQMNSLRAEDTAVYYCAKDSQLRSLLYFEWLSQGYFDYWGQGTTLTVSS VL: EIVMTQSPATLSVSPGERATLSCRSSQSITFDYKNYLAWYQQKPGQAPRLLIYWGSTRATGIPARFSGSGSGTEFTLTISSLQSEDFAVYYCQQHYRTPPSFGQGTKVEIK | 0.274 | 0.0239
VH 10 / VL 6 (antibody, V domains shown) VH: QVQLVQSGAEVKKPGSSVKVSCKASGFTFSTYAIHWVRQAPGQGLEWMGVISYDANYKYYAQKFQGRVTITRDNSKSTAYMELSSLRSEDTAVYYCARDSRLRSLLYFEWLSQGYFDYWGQGTTLTVSS VL: EIVMTQSPATLSVSPGERATLSCRSSQSITFDYKNYLAWYQQKPGQAPRLLIYWGSTRATGIPARFSGSGSGTEFTLTISSLQSEDFAVYYCQQHYRTPPSFGQGTKVEIK | 0.0695 | 0.0175
VH 11 / VL 4 (antibody, V domains shown) VH: QVQLVQSGAEVKKPGASVKVSCKASGFTFSTYAINWVRQATGQGLEWMGWISYDANYKYYAQKFQGRVTMTRDTSISTAYMELSSLRSEDTAVYYCAKDSQLRSLLYFEWLSQGYFDYWGQGTTLTVSS VL: DIVMTQSPDSLAVSLGERATINCKSSQSVTFDYKNYLAWYQQKPGQPPKLLIYWASTRESGVPDRFSGSGSGTDFTLTISSLQAEDVAVYYCQQHYRTPPSFGQGTKVEIK | 112 | 0.0244
VH 9 / VL 4 (antibody, V domains shown) VH: QVQLVQSGAEVKKPGSSVKVSCKASGFTFSTYAIHWVRQAPGQGLEWMGVISYDANYKYYAQKFQGRVTITRDNSKSTAYMELSSLRSEDTAVYYCAKDSQLRSLLYFEWLSQGYFDYWGQGTTLTVSS VL: DIVMTQSPDSLAVSLGERATINCKSSQSVTFDYKNYLAWYQQKPGQPPKLLIYWASTRESGVPDRFSGSGSGTDFTLTISSLQAEDVAVYYCQQHYRTPPSFGQGTKVEIK | 0.0608 | 0.0186
VH 10 / VL 4 (antibody, V domains shown) VH: QVQLVQSGAEVKKPGSSVKVSCKASGFTFSTYAIHWVRQAPGQGLEWMGVISYDANYKYYAQKFQGRVTITRDNSKSTAYMELSSLRSEDTAVYYCARDSRLRSLLYFEWLSQGYFDYWGQGTTLTVSS VL: DIVMTQSPDSLAVSLGERATINCKSSQSVTFDYKNYLAWYQQKPGQPPKLLIYWASTRESGVPDRFSGSGSGTDFTLTISSLQAEDVAVYYCQQHYRTPPSFGQGTKVEIK | 0.0241 | 0.0181
